Laboratory results: patent publication US20260049115A1 (UNIVERSITY OF CHICAGO, published 2026)
One block for each binder: values may come before it.

Columns and labels:
recombinant mouse IL-2Rα = molecular target: T1, recombinant mouse IL-2Rα (mouse, UniProt P01590 22-236, limits assumed); experiment: ELISA on plates coated with recombinant mouse IL-2Rα; apparent KD by nonlinear regression, one-site specific binding [panel C]
T1 construct: Bought recombinant protein; also called rm IL-2Rα
T1 sequence (looked up): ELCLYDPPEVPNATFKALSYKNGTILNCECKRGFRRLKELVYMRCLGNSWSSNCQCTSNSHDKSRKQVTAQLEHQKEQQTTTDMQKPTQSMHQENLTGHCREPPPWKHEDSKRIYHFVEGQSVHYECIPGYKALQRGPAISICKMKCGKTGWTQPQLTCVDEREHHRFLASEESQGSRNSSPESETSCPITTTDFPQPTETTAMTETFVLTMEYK
Description: (§1) Detection of CBD-IL-2 binding to collagen proteins. The measurement is performed as described previously (Ishihara et al., Sci Transl Med 9:doi:10.1126/scitranslmed.aan0401, 2017). 96-well ELISA plates (Greiner Bio One) were coated with 10 μg/mL collagen I (EMD Millipore), collagen III (EMD Millipore), or 1 μg/mL recombinant mouse IL-2Rα (SinoBiological) in PBS for 1 h at 37° C., followed by blocking with 2% BSA in PBS with 0.05% Tween 20 (PBS-T) for 1 hr at RT. Then, wells were washed with PBS-T and further incubated with 10 μg/mL CBD- or unmodified-IL-2 for 1 hr at RT. After 3 washes with PBS-T, wells were incubated for 1 hr at RT with HRP-conjugated antibody against rat IgG (Jackson ImmunoResearch). After washes, bound CBD-IL2 and IL-2 were detected with tetramethylbenzidine substrate by measurement of the absorbance at 450 nm with subtraction of 570 nm. The apparent dissociation constant (KD) values were obtained by nonlinear regression analysis in Prism software (v7, GraphPad Software) assuming one-site specific binding.

collagen type I [1] = molecular target: T2, collagen type I; experiment: SPR (Biacore X100), collagen I on CM5 chip, 1:1 Langmuir fit
T2 construct: Bought protein; also called collagen I; type I collagen
Description: (§2) FIGS. 6A-6D. CBD-CCL4 fusion protein binds to collagen I and collagen III and maintains its activity. (A) WT CCL4 and CBD-CCL4 were analyzed by SDS-PAGE followed by Coomassie blue staining. (B,C) Affinity of CBD-CCL4 against (B) collagen I and (C) collagen III was measured by SPR. SPR chips were functionalized with collagen I (˜500 RU) and collagen III (˜700 RU), and the CBD-CCL4 was flowed over the chips at indicated concentrations. Curves represent the obtained specific responses (in resonance units (RU)) to CBD-CCL4. Experimental curves were fitted with 1:1 Langmuir fit model. Binding kinetics values [dissociation constants (KD) and rate constants (kₒₙ and koff)] determined from the fitted curves are shown. (D) GPCR activation assay comparing signaling of WT CCL4 and CBD-CCL4 in ThP1 monocytes. EC₅₀ values were calculated using a non-linear dose-response curve fit model. Each point represents mean±SEM, n=3.
(§3) CBD-CCL4 collagen binding measurements using SPR. SPR measurements were made with a Biacore X100 SPR system™ (GE Healthcare). Collagen I or collagen III was immobilized via amine coupling on a CM5 chip (GE Healthcare) for ˜1000 resonance units (RU) according to the manufacturer's instructions. […] Specific binding of CBD-CCL4 to collagen was calculated automatically using the response to a non-functionalized channel as a reference. […]

collagen type III [2] = molecular target: T3, collagen type III; experiment: SPR, collagen III immobilised on the chip, CBD-CCL4 flowed at 15.6 to 500 nM, 1:1 Langmuir fit [panel C]
T3 construct: Bought protein; also called collagen III; type III collagen
Description: as §2, §3

collagen type I [3] = molecular target: T2, collagen type I; experiment: SPR, collagen I immobilised on the chip, CBD-CCL4 flowed at 15.6 to 500 nM, 1:1 Langmuir fit [panel B]
Description: as §2, §3

[4] = molecular target: CCR5 on ThP1 human monocytes (human, UniProt P51681 1-352); experiment: cell-based or functional assay
collagen type III [5] = molecular target: T3, collagen type III; experiment: SPR (Biacore X100), collagen III on CM5 chip, 1:1 Langmuir fit
Description: as §2, §3

collagen type III [6] = molecular target: T3, collagen type III; experiment: ELISA on plates coated with collagen III; apparent KD by nonlinear regression, one-site specific binding [panel C]
Description: as §1

collagen type I [7] = molecular target: T2, collagen type I; experiment: ELISA on plates coated with collagen I; apparent KD by nonlinear regression, one-site specific binding [panel C]
Description: as §1

T3 sequence (P02461 154-1221): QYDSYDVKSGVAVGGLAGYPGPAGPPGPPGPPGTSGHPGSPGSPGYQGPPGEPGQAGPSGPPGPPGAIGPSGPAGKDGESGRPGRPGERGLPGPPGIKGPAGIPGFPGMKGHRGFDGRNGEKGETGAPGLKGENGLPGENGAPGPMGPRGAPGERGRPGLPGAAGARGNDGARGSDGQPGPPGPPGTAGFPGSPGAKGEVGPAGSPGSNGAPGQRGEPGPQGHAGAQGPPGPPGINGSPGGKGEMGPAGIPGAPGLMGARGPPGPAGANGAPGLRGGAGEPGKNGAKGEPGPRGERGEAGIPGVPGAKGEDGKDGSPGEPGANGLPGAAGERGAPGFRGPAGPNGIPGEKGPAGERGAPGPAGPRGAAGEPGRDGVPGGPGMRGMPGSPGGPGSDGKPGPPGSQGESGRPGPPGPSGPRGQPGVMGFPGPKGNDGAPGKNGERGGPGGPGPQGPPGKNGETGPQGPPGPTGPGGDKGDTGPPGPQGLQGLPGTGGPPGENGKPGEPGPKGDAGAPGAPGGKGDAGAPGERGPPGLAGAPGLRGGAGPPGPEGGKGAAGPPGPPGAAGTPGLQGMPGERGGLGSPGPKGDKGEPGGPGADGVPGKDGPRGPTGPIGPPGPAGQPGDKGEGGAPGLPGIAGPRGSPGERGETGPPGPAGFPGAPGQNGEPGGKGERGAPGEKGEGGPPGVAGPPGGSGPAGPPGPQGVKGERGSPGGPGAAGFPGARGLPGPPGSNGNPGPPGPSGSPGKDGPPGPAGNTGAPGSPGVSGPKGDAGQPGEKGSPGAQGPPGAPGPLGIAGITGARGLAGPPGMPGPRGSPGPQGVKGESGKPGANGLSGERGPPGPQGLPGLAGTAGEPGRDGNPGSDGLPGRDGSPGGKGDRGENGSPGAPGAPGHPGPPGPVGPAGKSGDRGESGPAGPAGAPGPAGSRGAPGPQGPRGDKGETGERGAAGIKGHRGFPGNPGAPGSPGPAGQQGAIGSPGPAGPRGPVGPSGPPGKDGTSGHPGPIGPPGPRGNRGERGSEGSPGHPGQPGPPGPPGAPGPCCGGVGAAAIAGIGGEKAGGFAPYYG
Chain of CCR5 on ThP1 human monocytes (P51681 whole entry): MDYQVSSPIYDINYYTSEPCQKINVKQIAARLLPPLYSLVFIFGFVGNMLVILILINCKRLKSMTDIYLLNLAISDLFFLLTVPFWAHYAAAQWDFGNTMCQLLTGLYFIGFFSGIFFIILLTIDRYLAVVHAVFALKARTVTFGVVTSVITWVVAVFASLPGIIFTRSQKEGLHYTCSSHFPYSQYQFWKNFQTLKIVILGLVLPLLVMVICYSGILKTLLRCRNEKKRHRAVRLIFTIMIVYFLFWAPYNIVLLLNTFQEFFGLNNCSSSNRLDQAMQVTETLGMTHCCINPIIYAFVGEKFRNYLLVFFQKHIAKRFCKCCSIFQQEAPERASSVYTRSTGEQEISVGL

Kd (recombinant mouse IL-2Rα): 60 nM
B1: wild-type mouse IL-2 (His-tagged) (ligand)
chain: PTSSSTSSSTAEAQQQQQQQQQQQQHLEQLLMDLQELLSRMENYRNLKLPRMLTFKFYLPKQATELKDLQCLEDELGPLRHVLDLTQSKSFQLEDAENFISNIRVTVVKLKGSDNTFECQFDDESATVVDFLRRWIAFCQSIISTSPQ
notes: The entry includes the C-terminal 6xHis tag as printed; also called wild-type IL-2; unmodified-IL-2

Kd (collagen type I [1]): 33.4 nM | koff (collagen type III [2]): 0.0078 s⁻¹ | kon (collagen type III [2]): 540000 M⁻¹ s⁻¹ | koff (collagen type I [3]): 0.0031 s⁻¹ | kon (collagen type I [3]): 95000 M⁻¹ s⁻¹ | EC50, calcium flux (RFU) in ThP1 monocytes [panel D] [4]: 7 nM | Kd (collagen type III [5]): 14.5 nM
B2: CBD-CCL4 (human vWF A3 domain and murine CCL4 fusion protein) (other)
chain: CSQPLDVILLLDGSSSFPASYFDEMKSFAKAFISKANIGPRLTQVSVLQYGSITTIDVPWNVVPEKAHLLSLVDVMQREGGPSQIGDALGFAVRYLTSEMHGARPGASKAVVILVTDVSVDSVDAAADAARSNRVTVFPIGIGDRYDAAQLRILAGPAGDSNVVKLQRIEDLPTMVTLGNSFLHKLCSGFVRIGGGGSGGGGSAPMGSDPPTSCCFSYTSRQLHRSFVMDYYETSSLCSKPAVVFLTKRGRQICANPSEPWVTEYMSDLELNHHHHHH
notes: also called CBD-CCL4 fusion protein; vWF A3 domain-CCL4 fusion protein

Kd (collagen type III [6]): 181 nM | Kd (collagen type I [7]): 268 nM | Kd (recombinant mouse IL-2Rα): 54.7 nM
B3: CBD-fused IL-2 recombinant protein (the vWF A3 domain and mouse IL-2 fusion protein) (other)
chain: CSQPLDVILLLDGSSSFPASYFDEMKSFAKAFISKANIGPRLTQVSVLQYGSITTIDVPWNVVPEKAHLLSLVDVMQREGGPSQIGDALGFAVRYLTSEMHGARPGASKAVVILVTDVSVDSVDAAADAARSNRVTVFPIGIGDRYDAAQLRILAGPAGDSNVVKLQRIEDLPTMVTLGNSFLHKLCSGFVRIGGGSGGGSPTSSSTSSSTAEAQQQQQQQQQQQQHLEQLLMDLQELLSRMENYRNLKLPRMLTFKFYLPKQATELKDLQCLEDELGPLRHVLDLTQSKSFQLEDAENFISNIRVTVVKLKGSDNTFECQFDDESATVVDFLRRWIAFCQSIISTSPQ
notes: also called CBD-IL-2
